US20100260763A1 (DOMANTIS, published 2010)

Tests used:
[1] = molecular target: T1, human TNFR1, soluble recombinant protein (human, UniProt P19438 22-211, limits assumed, biotinylated in the BIAcore assays (coupling via primary amines)); assay: phage ELISA, plate coated with 1 nM TNFR1, anti-M13-HRP; trypsin 0 µg/ml; phage input 1.41E+09
T1 construct: also called biotinylated TNFR1; human recombinant E. coli-expressed human TNFR1
T1 sequence (looked up): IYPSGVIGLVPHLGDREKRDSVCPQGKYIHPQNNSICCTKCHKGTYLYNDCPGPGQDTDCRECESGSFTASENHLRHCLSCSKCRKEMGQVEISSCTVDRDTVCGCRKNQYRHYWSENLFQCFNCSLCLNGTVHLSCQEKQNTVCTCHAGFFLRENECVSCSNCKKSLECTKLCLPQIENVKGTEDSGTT

[2] = molecular target: T1, human TNFR1, soluble recombinant protein; assay: phage ELISA, plate coated with 1 nM TNFR1, anti-M13-HRP; trypsin 0 µg/ml; phage input 2.26E+10
[3] = molecular target: T1, human TNFR1, soluble recombinant protein; assay: phage ELISA, plate coated with 1 nM TNFR1, anti-M13-HRP; trypsin 0 µg/ml; phage input 2.82E+09
[4] = molecular target: T1, human TNFR1, soluble recombinant protein; assay: phage ELISA, plate coated with 1 nM TNFR1, anti-M13-HRP; trypsin 0 µg/ml; phage input 5.64E+09
[5] = molecular target: T1, human TNFR1, soluble recombinant protein; assay: phage ELISA, plate coated with 1 nM TNFR1, anti-M13-HRP; trypsin 1 mg/ml 1 h room temp; phage input 1.13E+10
[6] = molecular target: T1, human TNFR1, soluble recombinant protein; assay: phage ELISA, plate coated with 1 nM TNFR1, anti-M13-HRP; trypsin 1 mg/ml 1 h room temp; phage input 1.41E+09
[7] = molecular target: T1, human TNFR1, soluble recombinant protein; assay: phage ELISA, plate coated with 1 nM TNFR1, anti-M13-HRP; trypsin 1 mg/ml 1 h room temp; phage input 2.26E+10
[8] = molecular target: T1, human TNFR1, soluble recombinant protein; assay: phage ELISA, plate coated with 1 nM TNFR1, anti-M13-HRP; trypsin 1 mg/ml 1 h room temp; phage input 3.52E+08
[9] = molecular target: T1, human TNFR1, soluble recombinant protein; assay: phage ELISA, plate coated with 1 nM TNFR1, anti-M13-HRP; trypsin 1 mg/ml 1 h room temp; phage input 5.64E+09
[10] = molecular target: T1, human TNFR1, soluble recombinant protein; assay: phage ELISA, plate coated with 1 nM TNFR1, anti-M13-HRP; trypsin 10 µg/ml 1 h room temp; phage input 2.26E+10
[11] = molecular target: T1, human TNFR1, soluble recombinant protein; assay: phage ELISA, plate coated with 1 nM TNFR1, anti-M13-HRP; trypsin 10 µg/ml 1 h room temp; phage input 2.82E+09
[12] = molecular target: T1, human TNFR1, soluble recombinant protein; assay: phage ELISA, plate coated with 1 nM TNFR1, anti-M13-HRP; trypsin 10 µg/ml 1 h room temp; phage input 3.52E+08
[13] = molecular target: T1, human TNFR1, soluble recombinant protein; assay: phage ELISA, plate coated with 1 nM TNFR1, anti-M13-HRP; trypsin 10 µg/ml 1 h room temp; phage input 4.51E+10
[14] = molecular target: T1, human TNFR1, soluble recombinant protein; assay: phage ELISA, plate coated with 1 nM TNFR1, anti-M13-HRP; trypsin 10 µg/ml 1 h room temp; phage input 5.64E+09
[15] = molecular target: T1, human TNFR1, soluble recombinant protein; assay: phage ELISA, plate coated with 1 nM TNFR1, anti-M13-HRP; trypsin 100 µg/ml 1 h room temp; phage input 1.13E+10
[16] = molecular target: T1, human TNFR1, soluble recombinant protein; assay: phage ELISA, plate coated with 1 nM TNFR1, anti-M13-HRP; trypsin 100 µg/ml 1 h room temp; phage input 1.41E+09
[17] = molecular target: T1, human TNFR1, soluble recombinant protein; assay: phage ELISA, plate coated with 1 nM TNFR1, anti-M13-HRP; trypsin 100 µg/ml 1 h room temp; phage input 2.26E+10
[18] = molecular target: T1, human TNFR1, soluble recombinant protein; assay: phage ELISA, plate coated with 1 nM TNFR1, anti-M13-HRP; trypsin 100 µg/ml 1 h room temp; phage input 2.82E+09
[19] = molecular target: T1, human TNFR1, soluble recombinant protein; assay: phage ELISA, plate coated with 1 nM TNFR1, anti-M13-HRP; trypsin 100 µg/ml 1 h room temp; phage input 4.51E+10
[20] = molecular target: T1, human TNFR1, soluble recombinant protein; assay: phage ELISA, plate coated with 1 nM TNFR1, anti-M13-HRP; trypsin 100 µg/ml 1 h room temp; phage input 5.64E+09

Substance DOM1h-131 displayed on phage has a phage ELISA read-out [1] of 0.85, a phage ELISA read-out [2] of 0.944 and a phage ELISA read-out [3] of 0.946. For the same substance, the phage ELISA read-out [4] was 0.962, the phage ELISA read-out [5] was 0.183 and the phage ELISA read-out [6] was 0.089. For the same substance, the phage ELISA read-out [7] was 0.229, the phage ELISA read-out [8] was 0.08 and the phage ELISA read-out [9] was 0.133. For the same substance, the phage ELISA read-out [10] was 0.802, the phage ELISA read-out [11] was 0.573 and the phage ELISA read-out [12] was 0.213. It also gave a phage ELISA read-out [13] of 0.784, a phage ELISA read-out [14] of 0.695 and a phage ELISA read-out [15] of 0.284. For the same substance, the phage ELISA read-out [16] was 0.115, the phage ELISA read-out [17] was 0.377 and the phage ELISA read-out [18] was 0.141. For the same substance, the phage ELISA read-out [19] was 0.418 and the phage ELISA read-out [20] was 0.196.
